In data set [1] the target is T1, UPF1 RM-3F (RNA mutant, UPF1R RM-3F) (human, UniProt Q92900-2 1-1118, N524A;K547A;R843A).
T1 sequence: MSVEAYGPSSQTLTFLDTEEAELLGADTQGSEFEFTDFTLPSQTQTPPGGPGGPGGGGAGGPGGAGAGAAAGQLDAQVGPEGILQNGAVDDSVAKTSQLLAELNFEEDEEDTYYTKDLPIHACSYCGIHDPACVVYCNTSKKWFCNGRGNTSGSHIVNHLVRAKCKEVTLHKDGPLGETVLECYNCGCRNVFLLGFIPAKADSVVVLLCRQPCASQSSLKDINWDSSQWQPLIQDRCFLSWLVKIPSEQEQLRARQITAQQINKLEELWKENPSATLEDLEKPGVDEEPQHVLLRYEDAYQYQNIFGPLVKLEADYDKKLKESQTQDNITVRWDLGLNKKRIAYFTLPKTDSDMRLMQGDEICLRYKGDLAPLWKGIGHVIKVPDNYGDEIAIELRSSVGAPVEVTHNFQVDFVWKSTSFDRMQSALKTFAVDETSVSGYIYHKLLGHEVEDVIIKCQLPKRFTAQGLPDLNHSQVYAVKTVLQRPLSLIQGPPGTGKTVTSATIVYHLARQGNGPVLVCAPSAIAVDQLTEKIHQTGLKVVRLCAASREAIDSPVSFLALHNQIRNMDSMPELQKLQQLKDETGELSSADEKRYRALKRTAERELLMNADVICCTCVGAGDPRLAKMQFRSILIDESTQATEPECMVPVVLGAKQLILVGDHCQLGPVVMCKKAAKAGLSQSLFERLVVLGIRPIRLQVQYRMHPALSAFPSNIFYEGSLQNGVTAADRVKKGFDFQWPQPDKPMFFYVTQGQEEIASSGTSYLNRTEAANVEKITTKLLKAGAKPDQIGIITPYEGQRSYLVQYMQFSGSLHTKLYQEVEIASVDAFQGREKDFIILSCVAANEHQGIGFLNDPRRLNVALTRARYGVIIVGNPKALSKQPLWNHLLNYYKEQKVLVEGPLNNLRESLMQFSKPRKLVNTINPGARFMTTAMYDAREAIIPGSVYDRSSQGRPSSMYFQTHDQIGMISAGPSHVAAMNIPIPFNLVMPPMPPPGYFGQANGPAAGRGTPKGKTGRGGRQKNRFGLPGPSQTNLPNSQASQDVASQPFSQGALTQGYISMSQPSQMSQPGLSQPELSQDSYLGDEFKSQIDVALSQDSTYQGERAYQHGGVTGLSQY
The data set is described as follows: MST.

The next data set has as its target T2, UPF1-3F (wt, UPF1R-3F) (human, UniProt Q92900-2 1-1118).
T2 sequence: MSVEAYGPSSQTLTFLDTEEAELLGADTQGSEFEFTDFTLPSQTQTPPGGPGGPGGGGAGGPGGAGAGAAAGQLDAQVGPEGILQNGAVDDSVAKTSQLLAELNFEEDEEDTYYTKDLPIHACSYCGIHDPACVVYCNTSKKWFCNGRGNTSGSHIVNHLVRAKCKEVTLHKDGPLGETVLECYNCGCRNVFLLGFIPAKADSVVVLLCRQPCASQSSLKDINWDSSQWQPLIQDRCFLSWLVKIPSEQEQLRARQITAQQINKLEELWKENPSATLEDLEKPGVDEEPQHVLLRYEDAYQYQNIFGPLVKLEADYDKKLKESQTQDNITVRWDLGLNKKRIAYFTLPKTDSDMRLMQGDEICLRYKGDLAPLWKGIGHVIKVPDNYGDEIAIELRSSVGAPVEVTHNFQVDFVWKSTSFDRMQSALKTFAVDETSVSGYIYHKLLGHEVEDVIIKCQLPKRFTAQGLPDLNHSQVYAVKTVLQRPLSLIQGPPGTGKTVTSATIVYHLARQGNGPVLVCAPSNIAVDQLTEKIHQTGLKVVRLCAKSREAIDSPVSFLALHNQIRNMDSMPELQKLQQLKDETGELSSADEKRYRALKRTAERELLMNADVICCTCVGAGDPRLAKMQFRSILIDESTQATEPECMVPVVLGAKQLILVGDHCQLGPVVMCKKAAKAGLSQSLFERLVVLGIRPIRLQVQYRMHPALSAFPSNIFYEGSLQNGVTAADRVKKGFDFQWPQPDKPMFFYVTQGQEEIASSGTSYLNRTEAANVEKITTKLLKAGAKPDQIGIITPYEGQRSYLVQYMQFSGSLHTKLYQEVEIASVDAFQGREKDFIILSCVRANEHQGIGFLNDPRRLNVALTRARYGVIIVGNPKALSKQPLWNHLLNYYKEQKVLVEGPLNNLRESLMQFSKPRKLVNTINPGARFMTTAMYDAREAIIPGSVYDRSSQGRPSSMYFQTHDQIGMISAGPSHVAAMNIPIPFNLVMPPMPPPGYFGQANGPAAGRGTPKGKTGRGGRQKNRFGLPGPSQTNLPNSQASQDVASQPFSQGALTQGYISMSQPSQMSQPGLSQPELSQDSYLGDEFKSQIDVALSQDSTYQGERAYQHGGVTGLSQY
The data set is described as follows: MST.

The term Kd denotes a measure of binding affinity in units of concentration. The low end stands for higher affinity, the high end for lower affinity.

With UUUUUUUUUUUUUUUUUUUUUUUUUUUUUU (ssRNA) [U30 RNA], the binding result in data set [1] was “no binding”. In the data set with UPF1-3F (wt, UPF1R-3F), this molecule displayed a Kd of 25.3 ± 4.43 nM.

For the origin of these results see paper doi:10.1101/2021.08.02.454737.
